Experiments:
[1] = test system: LCLC-103H xenograft tumors; assay: Therapeutic treatment of SC LCLC-103H tumor xenografts (Example 3); type: in vivo, SCID mice; conditions: for tumor volume versus control IgG1-b12: day 30, One Way ANOVA (Dunnett's); for anti-tumor activity in established SC LCLC-103H tumors: single i.p. injection 1 mg/kg, SCID mice
Procedure: The in vivo efficacy of MMAE-conjugated anti-AXL antibodies was determined in established subcutaneous (SC) LCLC-103H xenograft tumors in SCID mice. 5×10^6 LCLC-103H (large cell lung carcinoma) tumor cells (obtained from Leibniz-Institut DSMZ-Deutsche Sammlung von Mikroorganismen and Zellkulturen GmbH (DSMZ)) in 200 μL PBS were injected subcutaneously in the right flank of female SCID mice. Starting 14-21 days after tumor cell inoculation, when the average tumor size was >100-200 mm^3 and distinct tumor growth was observed, a single injection with 1 mg/kg (20 μg/mouse) IgG1-AXL-vcMMAE antibodies or control (unconjugated IgG1-b12) was given intraperitoneally (100 μL/mouse). Tumor volume was determined at least two times per week. Tumor volumes (mm^3) were calculated from caliper (PLEXX) measurements as: 0.52×(length)×(width)^2.

A431 tumors = assay: A431 xenograft model (high Gas6); type: in vivo; conditions: 3 mg/kg i.p., SCID mice
Procedure: (§1) Tumor induction was performed by subcutaneous injection of 5×10^6 A431 or LCLC-103H tumor cells (both obtained from Leibniz-Institut—Deutsche Sammlung von Mikroorganismen and Zellkulturen GmbH (DSMZ)) in 200 μL PBS in the right flank of female SCID mice. Treatment was started 14-21 days after tumor cell inoculation, when the average tumor size was >100-200 mm^3 and distinct tumor growth was observed. Mice received a single injection or a total of 4 biweekly intraperitoneal injections with IgG1-AXL-vcMMAE ADCs or control antibody (unconjugated IgG1-b12), as indicated. Tumor volume was determined at least two times per week. Tumor volumes (mm^3) were calculated from caliper (PLEXX) measurements as: 0.52×(length)×(width)^2.

CEXF 773 tumors = assay: Cervix carcinoma PDX model CEXF 773; type: in vivo, NMRI nu/nu mice; conditions: for anti-tumor activity on CEXF 773 tumors: 4 mg/kg i.v. day 0 and day 7; for average tumor size versus IgG1-b12 and IgG1-b12-vcMMAE: day 28, 4 mg/kg i.v. day 0 and 7, p<0.001
Procedure: The anti-tumor activity of IgG1-AXL-183-vcMMAE and IgG1-AXL-726-vcMMAE was evaluated in the patient derived cervix carcinoma xenograft CEXF 773 model in NMRI nu/nu mice (Harlan, Netherlands). Experiments were performed by Oncotest (Freiburg, Germany).
Tumor fragments were obtained from xenografts in serial passage in nude mice. After removal from donor mice, tumors were cut into fragments (4-5 mm diameter) and placed in PBS (with 10% penicillin/streptomycin) until subcutaneous implantation. Mice under isofluorane anesthesia received unilateral, subcutaneous tumor implants in the flank. Tumors were allowed to grow until the tumor volume was 50-250 mm^3.
The treatment groups were: IgG1-b12, IgG1-b12-vcMMAE, IgG1-AXL-183-vcMMAE and IgG1-AXL-726-vcMMAE. The antibodies and ADCs were dosed intravenously (i.v.) at 4 mg/kg on the day of randomization (day 0) and on day 7. Tumor volumes (mm^3) were monitored twice weekly and were calculated from caliper (PLEXX) measurements as: 0.52×(length)×(width)^2.

LCLC-103H tumors = assay: LCLC-103H xenograft model (low Gas6, Example 5); type: in vivo; conditions: 3 mg/kg i.p., SCID mice
Procedure: as §1

MDA-MB-231 tumors = assay: Orthotopic MDA-MB-231 D3H2LN breast cancer xenograft model; type: in vivo, SCID mice; conditions: for anti-tumor activity on MDA-MB-231 tumors: 4 biweekly doses of 3 mg/kg; for average tumor size versus IgG1-b12 and IgG1-b12-vcMMAE: day 32, 4 biweekly doses of 3 mg/kg, P<0.001 One Way Anova
Procedure: The anti-tumor activity of IgG1-AXL-183-vcMMAE and IgG1-AXL-726-vcMMAE was evaluated in an orthotopic MDA-MB-231 D3H2LN xenograft model.
MDA-MB-231-luc D3H2LN Bioware cells (mammary gland adenocarcinoma; Perkin Elmer, Waltham, Mass.) were implanted in the mammary fat pad of 6-11 week old, female SCID (C.B-17/IcrPrkdc-scid/CRL) mice (Charles-River) under isofluorane anesthesia. Tumors were allowed to grow and mice were randomized when tumors reached a volume of ˜325 mm^3. […] The treatment groups were: IgG1-b12, IgG1-b12-vcMMAE, IgG1-AXL-183-vcMMAE and IgG1-AXL-726-vcMMAE. The animals received a total of 4 biweekly doses of 3 mg/kg antibody or ADC starting at the day of randomization. Tumor volumes (mm^3) were monitored twice weekly and were calculated from caliper (PLEXX) measurements as: 0.52×(length)×(width)^2.

PAXF1657 tumors = assay: PAXF1657 pancreas cancer PDX model; type: in vivo, NMRI nu/nu mice
Procedure: Human pancreas tumor tissue was subcutaneously implanted in the left flank of 5-7 weeks old female NMRI nu/nu mice. […] At day of randomization (day 0), the 3 ADCs were dosed intravenously (i.v.) at either 4 mg/kg or 2 mg/kg, and the control group received a single dose of IgG1-b12 (4 mg/kg). Tumor volumes (mm^3) were monitored twice weekly and were calculated from caliper (PLEXX) measurements as: 0.52×(length)×(width)^2.

[2] = Pre-clinical PK studies in cynomolgus monkey; type: in vivo
Source text: Data from 5 in-vivo pre-clinical studies, shown in the Table below, were provided, containing measurements of the plasma ADC level, plasma IgG level, and plasma MMAE level (only measured in study 5).
All studies appeared to show a significant drop in plasma concentrations of ADC/IgG after the 2nd dose when compared to the first dose, which corresponded with an ADA response. As this is a fully human antibody, ADA response are only very rarely expected to occur in humans. Therefore, only data after the first dose were included in the data preparation and subsequently modelled.

B1: IgG1-AXL-183-N52Q-vcMMAE: anti-AXL antibody 183-N52Q (VH SEQ ID No 17, VL SEQ ID No 18) conjugated to vcMMAE (conjugate)
VH: QVQLQQWGAGLLKPSETLSLTCAVYGGSFSGYYWSWIRQPPGKGLEWIGEIQQSGSTNYNPSLKSRVTISVDTSKNQFSLKLSSVTAADTSVYYCASGNWDHFFDYWGQGTLVTVSS
VL: DIQMTQSPSSVSASVGDRVTITCRASQGISSWLAWYQHKPGKAPKLLIYATSSLQSGVTSRFSGSGSGTDFTLTISSLQPEDFATYYCQQAKSFPWTFGQGTKVEIK
modifications: vc-MMAE conjugate; homo sapiens
- tumor volume versus control IgG1-b12 ([1]; 1 mg/kg single i.p.): not significant affected
- anti-tumor activity in established SC LCLC-103H tumors [1]: no or only minor tumor growth inhibition

B2: IgG1-AXL-183-vcMMAE: anti-AXL antibody 183 (FN1-binder) conjugated to vcMMAE (conjugate)
VH: QVQLQQWGAGLLKPSETLSLTCAVYGGSFSGYYWSWIRQPPGKGLEWIGEINQSGSTNYNPSLKSRVTISVDTSKNQFSLKLSSVTAADTSVYYCASGNWDHFFDYWGQGTLVTVSS
VL: DIQMTQSPSSVSASVGDRVTITCRASQGISSWLAWYQHKPGKAPKLLIYATSSLQSGVTSRFSGSGSGTDFTLTISSLQPEDFATYYCQQAKSFPWTFGQGTKVEIK
- anti-tumor activity on A431 tumors (A431 tumors): induced growth inhibition
- anti-tumor activity on CEXF 773 tumors (CEXF 773 tumors): induced tumor regression
- average tumor size versus IgG1-b12 and IgG1-b12-vcMMAE (CEXF 773 tumors): significantly smaller
- anti-tumor activity in the LCLC-103H xenograft model (LCLC-103H tumors): induced tumor regression
- anti-tumor activity on MDA-MB-231 tumors (MDA-MB-231 tumors): induced tumor regression
- average tumor size versus IgG1-b12 and IgG1-b12-vcMMAE (MDA-MB-231 tumors): significantly smaller

B3: IgG1-AXL-733-vcMMAE: anti-AXL antibody 733 (VH SEQ ID No 34, VL SEQ ID No 35) conjugated to vcMMAE (conjugate)
VH: QVQLVESGGGVVQPGRSLRLSCAASGFSFSTYAMHWVRQAPGKGLEWVAVISYDGDNKYSADSVKGRFTISRDNSKNTLYLQMNSLRAEDTAVYYCARGRKLGIDAFDIWGQGTMVTVSS
VL: AIQLTQSPSSLSASVGDRVTITCRASQGISSALAWYQQKPGKAPKLLIYDASSLESGVPSRFSGSGSGTDFTLTISGLQPEDFATYYCQQFNSYPFTFGPGTKVDIK
modifications: vc-MMAE conjugate; homo sapiens
- anti-tumor activity on A431 tumors (A431 tumors): induced growth inhibition
- growth of PAXF1657 tumors compared to the control group (PAXF1657 tumors; 2 mg/kg i.v., day 0): significantly reduced the growth
- anti-tumor activity on PAXF1657 tumors (PAXF1657 tumors; 4 mg/kg i.v., day 0): induced tumor regression
- average tumor size versus isotype control IgG1-b12 (PAXF1657 tumors; day 14, 2 mg/kg or 4 mg/kg, p<0.001 Tukey's multiple comparison test): significantly smaller
- complete tumor reduction ([1]; 1 mg/kg single i.p.): in some mice within these groups to complete tumor reduction
- tumor volume versus control IgG1-b12 ([1]; 1 mg/kg single i.p.): highly significant difference
- anti-tumor activity in established SC LCLC-103H tumors [1]: induced tumor regression

B4: IgG1-AXL-148 (antibody, V domains shown)
VH: EVQLLESGGGLVQPGGSLRLSCAASGFTFSSYAMTWVRQAPGKGLEWVSAISISGGSTFYADSVKGRFTISRDNSKNTLYLQMNSLRAEDTAVYYCRGYSGYVYDAFDFWGQGTMVTVSS
VL: DIQMTQSPSSLSASVGDRVTITCRASQGISNWLAWYQQKPEKAPKSLIYAASSLQSGVPSRFSGSGSGTDFTLTISSLQPEDFATYYCQQYNSYPLTFGGGTKVEIK
- pharmacokinetic properties, unconjugated antibody (study 3) versus ADC (study 2) [2]: similar
- anti-tumor activity in the PAXF1657 model (PAXF1657 tumors; dose not given): did not result in anti-tumor activity

B5: IgG1-AXL-511-vcMMAE: anti-AXL antibody 511 (VH SEQ ID No 136, VL SEQ ID No 140) conjugated to vcMMAE (conjugate)
VH: EVQLLESGGGLVQPGGSLRLSCAASGFTFSSYAMNWVRQAPGKGLEWVSGISGSGGHTYHADSVKGRFTISRDNSKNTLYLQMNSLRAEDTAVYYCAKDRYDILTGYYNLLDYWGQGTLVTVSS
VL: DIQMTQSPSSLSASVGDRVTITCRASQGISSWLAWYQQKPEEAPKSLIYAASSLQSGVPSRFSGSGSGTDFTLTISSLQPEDFATYYCQQYNSYPLTFGGGAKVEIK
modifications: vc-MMAE conjugate; homo sapiens
- tumor volume versus control IgG1-b12 ([1]; 1 mg/kg single i.p.): significant tumor growth inhibition
- anti-tumor activity in established SC LCLC-103H tumors [1]: induced tumor growth inhibition

B6: IgG1-AXL-726-vcMMAE: anti-AXL antibody 726 (FN2-binder) conjugated to vcMMAE (conjugate)
VH: QVQLQQWGAGLLKPSETLSLTCAIDGGSFSGYYWSWIRQPPGKGLEWIGEISHSGRTNYNPSLKSRVTISIDTSKNQFSLKLSSVAAADTAVYYCARFITMIRGAIITHFDYWGQGALVTVSS
VL: DIQMTQSPSSLSASVGDRVTITCRASQGISSWLAWYQQKPEKAPKSLIYAASSLQSGVPSRFSGSGSGTDFTLTISSLQPEDFATYYCQQYHSYPYTFGQGTKLEIK
- anti-tumor activity on A431 tumors (A431 tumors): induced growth inhibition
- anti-tumor activity on CEXF 773 tumors (CEXF 773 tumors): induced tumor regression
- average tumor size versus IgG1-b12 and IgG1-b12-vcMMAE (CEXF 773 tumors): significantly smaller
- anti-tumor activity in the LCLC-103H xenograft model (LCLC-103H tumors): induced tumor regression
- anti-tumor activity on MDA-MB-231 tumors (MDA-MB-231 tumors): induced tumor regression
- average tumor size versus IgG1-b12 and IgG1-b12-vcMMAE (MDA-MB-231 tumors): significantly smaller

B7: IgG1-AXL-726-M101L-vcMMAE: anti-AXL antibody 726-M101L (VH SEQ ID No 32, VL SEQ ID No 33) conjugated to vcMMAE (conjugate)
VH: QVQLQQWGAGLLKPSETLSLTCAIDGGSFSGYYWSWIRQPPGKGLEWIGEISHSGRTNYNPSLKSRVTISIDTSKNQFSLKLSSVAAADTAVYYCARFITLIRGAIITHFDYWGQGALVTVSS
VL: DIQMTQSPSSLSASVGDRVTITCRASQGISSWLAWYQQKPEKAPKSLIYAASSLQSGVPSRFSGSGSGTDFTLTISSLQPEDFATYYCQQYHSYPYTFGQGTKLEIK
modifications: vc-MMAE conjugate; homo sapiens
- tumor volume versus control IgG1-b12 ([1]; 1 mg/kg single i.p.): not significant affected
- anti-tumor activity in established SC LCLC-103H tumors [1]: no or only minor tumor growth inhibition
